From patent publication US20100041032A1

Biological target: Nodal, endogenous in mouse F9 Cripto-/- cells (mouse) (UniProt P43021)
Test: cell-based or functional assay

Sequence of UniProt P43021 (P43021 245-354 limits assumed): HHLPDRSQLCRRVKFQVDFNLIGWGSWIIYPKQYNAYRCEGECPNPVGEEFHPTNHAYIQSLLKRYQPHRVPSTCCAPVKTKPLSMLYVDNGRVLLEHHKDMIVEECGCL

luciferase activity, FAST transcription factor dependent (n2)7-luciferase reporter assay in F9 Cripto-/- cells, fold increase compared with control: 4 to 6 fold
Substance: human Cripto-1 (protein encoded by TDGF1) (from UniProt P13385 31-150)
